According to article PMC5589264, “Reversible unfolding of infectious prion assemblies reveals the existence of an oligomeric elementary brick” (PLoS Pathogens, 2017):

Target: the molecule itself
Assay: SEC

B1: prion protein (PrP) from 263K-infected Syrian hamster brain (natural protein)
chain: not shown
notes: also called PrP^Sc; 263K PrP^Sc
  stoichiometry N: ~3
